# In patent US20260242735A1 (UNIVERSIT T BASEL, published 2026):
# B1: Refmab #4 (antibody, V domains shown)
# VH: QVQLVQSGAEVKKPGESVKVSCKASGYTFTNYGMNWVKQAPGQGLEWMGWINTYTGEPTYADKFQGRVTMTTDTSTSTAYMEIRNLGGDDTAVYYCARWSWSDGYYVYFDYWGQGTSVTVSS
# VL: DIVMTQSPDSLTVSLGERTTINCKSSQSVLDSSTNKNSLAWYQQKPGQPPKLLLSWASTRESGIPDRFSGSGSGTDFTLTIDSPQPEDSATYYCQQSAHFPITFGQGTRLEIK
# notes: The alanine scan used IgG or Fab
# Key:
# Test in all cases: flow cytometry, alanine scan
# human CD33 T354A = human CD33 T354A (human, UniProt P20138 18-364)
# human CD33 Y358A = human CD33 Y358A (human, UniProt P20138 18-364)
# human CD33 A328S = human CD33 A328S (human, UniProt P20138 18-364)
# human CD33 E360A = human CD33 E360A (human, UniProt P20138 18-364)
# human CD33 R362A = human CD33 R362A (human, UniProt P20138 18-364)
# human CD33 M348A = human CD33 M348A (human, UniProt P20138 18-364)
# human CD33 P319A = human CD33 P319A (human, UniProt P20138 18-364)
# human CD33 S326A = human CD33 S326A (human, UniProt P20138 18-364)
# human CD33 V332A = human CD33 V332A (human, UniProt P20138 18-364)
# human CD33 S351A = human CD33 S351A (human, UniProt P20138 18-364)
# human CD33 T356A = human CD33 T356A (human, UniProt P20138 18-364)
# human CD33 D353A = human CD33 D353A (human, UniProt P20138 18-364)
# human CD33 P330A = human CD33 P330A (human, UniProt P20138 18-364)
# human CD33 H346A = human CD33 H346A (human, UniProt P20138 18-364)
# human CD33 S359A = human CD33 S359A (human, UniProt P20138 18-364)
# human CD33 K352A = human CD33 K352A (human, UniProt P20138 18-364)
# human CD33 S323A = human CD33 S323A (human, UniProt P20138 18-364)
# human CD33 S342A = human CD33 S342A (human, UniProt P20138 18-364)
# human CD33 H339A = human CD33 H339A (human, UniProt P20138 18-364)
# human CD33 E333A = human CD33 E333A (human, UniProt P20138 18-364)
# human CD33 P350A = human CD33 P350A (human, UniProt P20138 18-364)
# human CD33 L343A = human CD33 L343A (human, UniProt P20138 18-364)
# human CD33 E336A = human CD33 E336A (human, UniProt P20138 18-364)
# human CD33 T331A = human CD33 T331A (human, UniProt P20138 18-364)
# human CD33 V361A = human CD33 V361A (human, UniProt P20138 18-364)
# human CD33 L338A = human CD33 L338A (human, UniProt P20138 18-364)
# human CD33 G347A = human CD33 G347A (human, UniProt P20138 18-364)
# human CD33 Y340A = human CD33 Y340A (human, UniProt P20138 18-364)
# human CD33 T363A = human CD33 T363A (human, UniProt P20138 18-364)
# human CD33 E321A = human CD33 E321A (human, UniProt P20138 18-364)
# human CD33 T320A = human CD33 T320A (human, UniProt P20138 18-364)
# human CD33 F345A = human CD33 F345A (human, UniProt P20138 18-364)
# human CD33 S355A = human CD33 S355A (human, UniProt P20138 18-364)
# human CD33 G327A = human CD33 G327A (human, UniProt P20138 18-364)
# human CD33 S324A = human CD33 S324A (human, UniProt P20138 18-364)
# human CD33 G318A = human CD33 G318A (human, UniProt P20138 18-364)
# human CD33 E337A = human CD33 E337A (human, UniProt P20138 18-364)
# human CD33 T322A = human CD33 T322A (human, UniProt P20138 18-364)
# human CD33 N344A = human CD33 N344A (human, UniProt P20138 18-364)
# human CD33 E357A = human CD33 E357A (human, UniProt P20138 18-364)
# human CD33 A341S = human CD33 A341S (human, UniProt P20138 18-364)
# human CD33 Q364A = human CD33 Q364A (human, UniProt P20138 18-363)
# human CD33 D335A = human CD33 D335A (human, UniProt P20138 18-364)
# human CD33 A329S = human CD33 A329S (human, UniProt P20138 18-364)
# human CD33 C325A = human CD33 C325A (human, UniProt P20138 18-364)
# human CD33 N349A = human CD33 N349A (human, UniProt P20138 18-364)
# human CD33 M334A = human CD33 M334A (human, UniProt P20138 18-364)
# Chain of human CD33 M334A (P20138 18-364 M334A limits assumed): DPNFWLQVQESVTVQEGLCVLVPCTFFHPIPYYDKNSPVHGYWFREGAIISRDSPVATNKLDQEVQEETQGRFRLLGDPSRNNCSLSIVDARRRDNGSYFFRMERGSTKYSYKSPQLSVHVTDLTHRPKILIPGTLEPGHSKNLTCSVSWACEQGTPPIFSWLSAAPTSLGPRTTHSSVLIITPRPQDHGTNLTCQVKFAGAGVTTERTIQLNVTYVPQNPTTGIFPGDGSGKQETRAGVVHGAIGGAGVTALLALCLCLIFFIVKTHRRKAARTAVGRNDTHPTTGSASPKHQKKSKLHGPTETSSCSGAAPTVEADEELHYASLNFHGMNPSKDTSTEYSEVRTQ
# Chain of human CD33 D353A (P20138 18-364 D353A limits assumed): as the sequence (P20138 18-364 M334A limits assumed) above, with A317M, D336A counted along it
# Chain of human CD33 P319A (P20138 18-364 P319A limits assumed): as the sequence (P20138 18-364 M334A limits assumed) above, with P302A, A317M counted along it
# Chain of human CD33 T322A (P20138 18-364 T322A limits assumed): as the sequence (P20138 18-364 M334A limits assumed) above, with T305A, A317M counted along it
# Chain of human CD33 H346A (P20138 18-364 H346A limits assumed): as the sequence (P20138 18-364 M334A limits assumed) above, with A317M, H329A counted along it
# Chain of human CD33 E333A (P20138 18-364 E333A limits assumed): as the sequence (P20138 18-364 M334A limits assumed) above, with E316A, A317M counted along it
# Chain of human CD33 N344A (P20138 18-364 N344A limits assumed): as the sequence (P20138 18-364 M334A limits assumed) above, with A317M, N327A counted along it
# Chain of human CD33 P350A (P20138 18-364 P350A limits assumed): as the sequence (P20138 18-364 M334A limits assumed) above, with A317M, P333A counted along it
# Chain of human CD33 T331A (P20138 18-364 T331A limits assumed): as the sequence (P20138 18-364 M334A limits assumed) above, with T314A, A317M counted along it
# Chain of human CD33 S359A (P20138 18-364 S359A limits assumed): as the sequence (P20138 18-364 M334A limits assumed) above, with A317M, S342A counted along it
# Chain of human CD33 K352A (P20138 18-364 K352A limits assumed): as the sequence (P20138 18-364 M334A limits assumed) above, with A317M, K335A counted along it
# Chain of human CD33 L343A (P20138 18-364 L343A limits assumed): as the sequence (P20138 18-364 M334A limits assumed) above, with A317M, L326A counted along it
# Chain of human CD33 F345A (P20138 18-364 F345A limits assumed): as the sequence (P20138 18-364 M334A limits assumed) above, with A317M, F328A counted along it
# Chain of human CD33 T356A (P20138 18-364 T356A limits assumed): as the sequence (P20138 18-364 M334A limits assumed) above, with A317M, T339A counted along it
binder,measurement,setting,value
B1,Mean % WT Binding,human CD33 T354A,106 % of WT
same,Mean % WT Binding,human CD33 Y358A,109 % of WT
same,Mean % WT Binding,human CD33 A328S,75.6 % of WT
same,Mean % WT Binding,human CD33 E360A,104 % of WT
same,Mean % WT Binding,human CD33 R362A,104 % of WT
same,Mean % WT Binding,human CD33 M348A,85 % of WT
same,Mean % WT Binding,human CD33 P319A,97 % of WT
same,Mean % WT Binding,human CD33 S326A,65.8 % of WT
same,Mean % WT Binding,human CD33 V332A,93.4 % of WT
same,Mean % WT Binding,human CD33 S351A,114 % of WT
same,Mean % WT Binding,human CD33 T356A,107 % of WT
same,Mean % WT Binding,human CD33 D353A,74.9 % of WT
same,Mean % WT Binding,human CD33 P330A,97.8 % of WT
same,Mean % WT Binding,human CD33 H346A,111 % of WT
same,Mean % WT Binding,human CD33 S359A,82.7 % of WT
same,Mean % WT Binding,human CD33 K352A,103 % of WT
same,Mean % WT Binding,human CD33 S323A,103 % of WT
same,Mean % WT Binding,human CD33 S342A,105 % of WT
same,Mean % WT Binding,human CD33 H339A,82 % of WT
same,Mean % WT Binding,human CD33 E333A,104 % of WT
same,Mean % WT Binding,human CD33 P350A,93.1 % of WT
same,Mean % WT Binding,human CD33 L343A,116 % of WT
same,Mean % WT Binding,human CD33 E336A,109 % of WT
same,Mean % WT Binding,human CD33 T331A,97.9 % of WT
same,Mean % WT Binding,human CD33 V361A,92.4 % of WT
same,Mean % WT Binding,human CD33 L338A,109 % of WT
same,Mean % WT Binding,human CD33 G347A,72.1 % of WT
same,Mean % WT Binding,human CD33 Y340A,112 % of WT
same,Mean % WT Binding,human CD33 T363A,124 % of WT
same,Mean % WT Binding,human CD33 E321A,120 % of WT
same,Mean % WT Binding,human CD33 T320A,109 % of WT
same,Mean % WT Binding,human CD33 F345A,109 % of WT
same,Mean % WT Binding,human CD33 S355A,91.5 % of WT
same,Mean % WT Binding,human CD33 G327A,99.1 % of WT
same,Mean % WT Binding,human CD33 S324A,96.4 % of WT
same,Mean % WT Binding,human CD33 G318A,92.2 % of WT
same,Mean % WT Binding,human CD33 E337A,106 % of WT
same,Mean % WT Binding,human CD33 T322A,98.2 % of WT
same,Mean % WT Binding,human CD33 N344A,71.2 % of WT
same,Mean % WT Binding,human CD33 E357A,110 % of WT
same,Mean % WT Binding,human CD33 A341S,104 % of WT
same,Mean % WT Binding,human CD33 Q364A,81.5 % of WT
same,Mean % WT Binding,human CD33 D335A,105 % of WT
same,Mean % WT Binding,human CD33 A329S,87.3 % of WT
same,Mean % WT Binding,human CD33 C325A,88.6 % of WT
same,Mean % WT Binding,human CD33 N349A,95.5 % of WT
same,Mean % WT Binding,human CD33 M334A,111 % of WT
